Sequences and labels used below:
B1: Phosphocarrier protein HPr, P08877 (parent)
chain: MAQKTFKVTADSGIHARPATVLVQTASKYDADVNLEYNGKTVNLKSIMGVMSLGIAKGAEITISASGADENDALNALEETMKSEGLGE

In one data set the parent is B1. The settings on record: Bacillus subtilis (strain 168); pH 7; 25 °C; GdnHCl; CD; Potassium phosphate 10 mM; reversible: yes; structure 1SPH; whole UniProt chain shown.
For the variant MAQKTFKVTADSGIHARPATVLVQTASKYDADVNLEYNGKTVNLKSIMEVMSLGIAKGAEITISASGAAENDALNALEETMKSEGLGE [D69A G49E], the “ddG of mutation (higher = less stable)” value was -0.6 kcal/mol, the denaturant m value was 2.4 kcal/mol/M, the “denaturant midpoint (higher = more stable)” value amounted to 1.8 M and the unfolding free energy worked out at 4.3 kcal/mol.

The same data set, now with this note: Bacillus subtilis (strain 168); pH 7; 25 °C; Thermal; CD; Sodium phosphate 50 mM; reversible: yes; structure 1SPH; whole UniProt chain shown.
With MAQKTFKVTADSGIHARPATVLVQTASKYDADVNLEYNGKTVNLKSIMEVMSLGIAKGAEITISASGAAENDALNALEETMKSEGLGE [D69A G49E], the “ddG of mutation (higher = less stable)” value came to 0.7 kcal/mol and the unfolding free energy stood at 4.4 kcal/mol.

The data set is the same for the next values; noted with them: Bacillus subtilis (strain 168); pH 7; 25 °C; Urea; CD; Sodium phosphate 50 mM; reversible: yes; structure 1SPH; whole UniProt chain shown.
For MAQKTFKVTADSGIHARPATVLVQTASKYDADVNLEYNGKTVNLKSIMEVMSLGIAKGAEITISASGAAENDALNALEETMKSEGLGE [D69A G49E], the “ddG of mutation (higher = less stable)” value was found to be 0.7 kcal/mol, the denaturant m value was 1.1 kcal/mol/M, the “denaturant midpoint (higher = more stable)” value worked out at 3.9 M and the unfolding free energy is 4.2 kcal/mol.

Staying with this data set, now noted: Bacillus subtilis (strain 168); pH 7; Thermal; DSC; Potassium phosphate 10 mM; reversible: yes; structure 1SPH; whole UniProt chain shown.
One may read the Tm as the temperature at which the thermal transition is half complete. With MAQKTFKVTADSGIHARPATVLVQTASKYDADVNLEYNGKTVNLKSIMEVMSLGIAKGAEITISASGAAENDALNALEETMKSEGLGE [D69A G49E], the midpoint of thermal melting (Tm) stood at 70 °C; the “change of melting temperature, mutant - wild type (higher = more stable)” value is -4.9 °C; the “unfolding enthalpy (calorimetric)” value amounted to 71.5 kcal/mol.
